The source of these data is patent US20250049939A1, “NOVEL FLT3 ANTIBODIES AND ANTIBODY-DRUG-CONJUGATES BASED THEREON, THERAPEUTIC METHODS AND USES THEREOF IN COMBINATION WITH TYROSINE KINASE INHIBITORS” (TUBULIS GmbH, priority 2021, published 2025).

The target in experiment [1] is T1, recombinant human FLT3 (Homo sapiens, UniProt P36888).
T1 construct: purchased Sino Biological 10445-H08H
T1 sequence (P36888 27-541 limits assumed): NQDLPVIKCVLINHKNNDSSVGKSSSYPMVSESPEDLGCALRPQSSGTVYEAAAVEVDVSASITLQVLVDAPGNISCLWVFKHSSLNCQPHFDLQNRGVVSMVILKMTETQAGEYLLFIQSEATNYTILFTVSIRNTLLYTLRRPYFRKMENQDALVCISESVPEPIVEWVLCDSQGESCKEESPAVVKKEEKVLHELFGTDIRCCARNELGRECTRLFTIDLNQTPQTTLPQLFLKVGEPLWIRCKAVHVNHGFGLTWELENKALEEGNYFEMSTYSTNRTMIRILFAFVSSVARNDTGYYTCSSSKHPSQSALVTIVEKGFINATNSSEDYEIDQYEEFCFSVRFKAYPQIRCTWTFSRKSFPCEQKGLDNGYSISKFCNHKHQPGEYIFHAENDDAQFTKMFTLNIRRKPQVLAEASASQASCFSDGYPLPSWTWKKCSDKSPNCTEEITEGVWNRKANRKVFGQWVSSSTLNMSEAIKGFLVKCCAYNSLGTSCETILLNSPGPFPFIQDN
Kind of experiment: ELISA affinity to recombinant human FLT3. The experiment is classed as binding. The following applies: chimeric Ab clones. An excerpt: FIG. 1: Evaluation of epitope specificity and internalization capability of anti-FLT3 monoclonal antibodies. (A) Affinity of seven anti-FLT3 monoclonal antibody (mab) clones to recombinant human FLT3 measured in enzyme-linked immunosorbent assay (ELISA) normalized to the binding of the antibodies to BSA control. […] (B) Schematic FLT3 receptor. Black arrows indicate common mutations and blue arrows indicate the three identified epitopes of seven anti-FLT3 antibodies analyzed in linear epitope mapping by PEPperPRINT. Figure was created with BioRender.com. (C) Binding and temperature induced internalization of anti-FLT3 antibodies in Ba/F3 cells expressing human wildtype FLT3. Internalization was induced by incubation for 30 min at 37° C. (grey) compared to 4° C. (black). Remaining surface-bound antibody was detected in flow cytometry. MFI was normalized to control human IgG1 binding. MFI=mean fluorescence intensity. […] (D) Cell surface binding of 20D9 mab or control human IgG1 antibody to Ba/F3 cells stably expressing pMIY (Ba/F3-pMIY) empty vector (ev), human wildtype (hFLT3 wt) or ITD mutant human FLT3 (hFLT3ITD) was measured in flow cytometry. Mean±s.d. of n=3. (E) Temperature induced internalization of 4B12 mab in MOLM-13 (FLT3 positive) cells after 30 min incubation at 37° C. compared to 4° C. and HL-60 (FLT3 negative) after 37° C. incubation assessed in immunofluorescence staining. Red=FLT3 staining by 4B12, Green=membrane staining by Vybrant DiO, Blue=nuclear staining by DAPI. Scale bar 5 μm. Representative pictures are shown. (F) Cell surface binding of 20D9 mab or control hIgG1 antibody to Ba/F3-pMIY ev, hFLT3 wt, murine (mFLT3 wt) or cynomolgues monkey FLT3 (cynoFLT3 wt) was measured in flow cytometry. Mean±s.d. of n=3. (G) Cell surface binding of 20D9 mab or control hIgG1 antibody to Ba/F3-PMIY ev, hFLT3 wt or epitope mutant FLT3 (hFLT3/S50P/P54R) measured in flow cytometry. Mean±s.d. of n=3. (H) Cell surface binding of 20D9 mab or control hIgG1 antibody to Ba/F3-PMIY ev, hFLT3 wt or human CD64 (hCD64) measured in flow cytometry. Mean±s.d. of n=3.
Maxisorp plates were coated with human recombinant FLT3 protein (10445-H08H, Sino Biological). Chimeric (20D9) or humanized anti-FLT3 monoclonal antibodies (in house) and secondary alkaline phosphatase conjugated rabbit anti-human IgG antibody (309-055-008, Jackson Immunoresearch) were used. For detection, Attophos Fluorescent Substrate System (S1000, Promega) was applied. The fluorescence was read with excitation of 405 nm and emission at 500-550 nm. The calculation of the dissociation constant KD was performed using GraphPad Prism version 9.4.0.
On the technique in general: ELISA stands for enzyme-linked immunosorbent assay.

Experiment [2] has as its system cynomolgus monkey FLT3. Kind of experiment: Cell surface binding to Ba/F3 cynoFLT3, flow cytometry. As to the method:
For antibody binding studies, cells were stained on ice with primary mouse, rat or human anti-FLT3 antibodies (in house) and secondary antibody Goat F(ab′)2 Anti-Human Ig-PE (2012-09), Goat Anti-Mouse IgG (H+L)-PE (1032-09) or Goat Anti-Rat IgG (H+L)-PE (3052-09) purchased from Southern Biotech. For internalization experiments, cells incubated with anti-FLT3 antibodies were washed and incubated for 30 min at 4° C. or 37° C. followed by staining with secondary antibody.
Murine FLT3 (OMu21985D, Genescript), human CD64 (RC207487), CD32 (RC205786) and CD16 (RC206429), were purchased from Origene. Cynomolgues monkey FLT3 gene was synthesized from XM_015439107.1 by Eurofins. The constructs were cloned into retroviral expression vector MSCV-IRES-YFP (pMIY) using the In-Fusion HD Cloning Plus Kit (Takara Bio, Saint-Germain-en-Laye, France). All FLT3 point mutations were generated using the QuikChange II XL Site-Directed Mutagenesis Kit (Agilent Technologies, Santa Clara, CA, USA) and correct sequence was confirmed by Sanger sequencing. MSCV-IRES-YFP vectors with inserted human wildtype FLT3 and ITD (w51 and NPOS) mutated FLT3 has been described before (e.g., Opatz S, Polzer H, Herold T, et al. Exome sequencing identifies recurring FLT3 N676K mutations in core-binding factor leukemia. Blood. 2013; 122 (10): 1761-1769. doi: 10.1182/blood-2013-01-476473).
For FLT3 expression analysis, cells were stained on ice with primary mouse anti-FLT3-AF647 antibodies for 30 min. For antibody binding studies, cells were stained on ice with chimeric (20D9) or humanized anti-FLT3 antibodies (in house) or IgG1 control with or without Leu234Ala/Leu235Ala (LALA)-mutation in the Fc region and secondary antibody goat F(ab′)2 Anti-Human IgG-AF647 (2042-31) purchased from Southern Biotech for 30 min, respectively. Binding and expression were subsequently measured at the flow cytometer (BD FACSCanto II) and the results were evaluated with FlowJo version 10.8.1.
On the technique in general: Flow cytometry measures light scatter and fluorescence of single cells or particles in a stream.

B1: 4B12: chimeric anti-FLT3 antibody from rat; VH SEQ ID NO: 9, VL SEQ ID NO: 10 (antibody, V domains shown)
VH: QVQLQQSGPGLVQPSQTLSLTCTVSGFSLTSYNVNWVRQPPGKGLEWIGAMWRGGGTDYNPALKSRLSISRDTSKSQVFLKMNRLQTEDTAIYFCTRGFGDYWGQGVMVTVSSA
VL: DIQMTQTPLSLSVAIGQSASISCKSSQSLKYSDGKTYLNWVFQSPGQSPKRLIYQVSKLDSGVPDRFSGTGSETDFTLKISRVEAEDLGVYYCCQGSYSPSTFGAGTKLELKR
modifications: Clone 4B12, heavy chain variable region without a signal sequence; Clone 4B12, light chain variable region without a signal seqeunce
Regarding B1, the “Affinity Kd” value in experiment [1] was 0.03191 µg/mL. Further, the “Cross reactivity for cyno” value in experiment [2] is “cross-reactive and yes”.

B2: 20D9: chimeric (rat variable regions, human IgG1) anti-FLT3 monoclonal antibody; VH SEQ ID NO: 5, VL SEQ ID NO: 6 (antibody, V domains shown)
VH: DVMLVESGGGLVQPGRSLKLSCVASGFTFNNYWMTWIRQAPGKGLEWIASITKTGGGTYYPDSVKGRFTISRDNAKSTLYLQMNSLRSEDTATYYCTTLQQLGVMDAWGQGASVTVSSA
VL: DVQMTQSPSVLSASVGDRITLNCKASQNINKELNWYQQKLGEAPKLLIYNTNNLQTGIPSRFSGSGSGTDYTLTISSLQPEDVATYFCFQHKSWPLTFGSGTKLEIKR
modifications: Clone 20D9, heavy chain variable region without a signal seqeunce; Clone 20D9, light chain variable region without a signal seqeunce
Turning to B2, the “Affinity Kd” value in experiment [1] came to 0.02188 µg/mL. Also, in experiment [2], the “Binding to cynomolgus monkey FLT3 expressing Ba/F3 cell lines” value is recorded as “bound”; the “Cross reactivity for cyno” value is “cross-reactive and yes”.
